Measurements taken from US20240247080A1, “GLP1/GIP/NPY2 RECEPTOR TRIPLE AGONISTS” (Boehringer Ingelheim International GmbH, priority 2022, published 2024).
Starred links: 1 amine or outer side, 2 acyl side, 3 side chain; linkers in the order of their positions; H or OH if unused. Non-standard residues stand in square brackets, D forms with d. Groups on a side chain read outwards from the residue. No end group written: not given here. *: point of attachment. C20 diacid = O=C(O)CCCCCCCCCCCCCCCCCCC(=O)*; γGlu = O=C(O)[C@H](CCC(=O)[*:2])N[*:1]; εLys = N[C@@H](CCCCN[*:1])C(=O)[*:2]; AEEA = NCCOCCOCC(=O)O; Aib = CC(C)(N)C(=O)O

B1: Compound 111 (peptide)
peptide: YXEGTFTSDYSIXLEKQAQXAFVQWLIKGGPSEPASLRHYYNWLTRQRY
modifications: Aib at 2, 13, 20; K28 side chain: C20DA-gGlu-gGlu-gGlu-gGlu-gGlu-OEG-OEG; C-terminal NH2
B2: Compound 128 (peptide)
peptide: YXEGTFTSDYSIXLDKQAQXAFVEWLIKGGPSSGASLRHYYNWLTRQRY
modifications: Aib at 2, 13, 20; K28 side chain: C20DA-gGlu-gGlu-gGlu-gGlu-gGlu-gGlu-eLys; C-terminal NH2
B3: Compound 127 (peptide)
peptide: YXEGTFTSDYSIXLEKQAQXAFVEWLIKGGPSSGESLRHYYNWLTRQRY
modifications: Aib at 2, 13, 20; K28 side chain: C20DA-gGlu-gGlu-gGlu-gGlu-gGlu-gGlu-eLys; C-terminal NH2
B4: Compound 115 (peptide)
peptide: YXEGTFTSDYSIXLEKQAQXAFVQWLIKGGPSEGASLRHYYNWLTRQRY
modifications: Aib at 2, 13, 20; NMeQ at 47; K28 side chain: C20DA-gGlu-gGlu-gGlu-gGlu-gGlu-gGlu-eLys; C-terminal NH2
B5: Compound 129 (peptide)
peptide: YXEGTFTSDYSIXLEKQAQXAFVEWLIKGGPSSGASLXHYYNWLTRQRY
modifications: Aib at 2, 13, 20, 38; K28 side chain: C20DA-gGlu-gGlu-gGlu-gGlu-gGlu-gGlu-eLys; C-terminal NH2
B6: Compound 116 (peptide)
peptide: YXEGTFTSDYSIXLEEQAQXAFVEWLIKGGPSSGASLRHYYNWLTRQRY
modifications: Aib at 2, 13, 20; K28 side chain: C20DA-gGlu-gGlu-gGlu-gGlu-gGlu-gGlu-eLys; C-terminal NH2
B7: Compound 119 (peptide)
peptide: YXEGTFTSDYSIXLEKQAQXAFVEWLIKGGPSSGASLRXYYNWLTRQRY
modifications: Aib at 2, 13, 20; Tle at 39; K28 side chain: C20DA-gGlu-gGlu-gGlu-gGlu-gGlu-gGlu-eLys; C-terminal NH2
B8: Compound 125 (peptide)
peptide: YXEGTFTSDYSIXLEKQAQXAFVQWLIKGGPSEGASLRHYYNWLTRQRY
modifications: Aib at 2, 13, 20; NMeR at 48; K28 side chain: C20DA-gGlu-gGlu-gGlu-gGlu-gGlu-gGlu-eLys; C-terminal NH2
B9: Compound 117 (peptide)
peptide: YXEGTFTSDYSIXLEKQAQXAFVEWLIKGGPSSGASVRHYYNWLTRQRY
modifications: Aib at 2, 13, 20; K28 side chain: C20DA-gGlu-gGlu-gGlu-gGlu-gGlu-gGlu-eLys; C-terminal NH2
B10: Compound 118 (peptide)
peptide: YXEGTFTSDYSIXLEKQAQXAFVEWLIKGGPSSGASXRHYYNWLTRQRY
modifications: Aib at 2, 13, 20, 37; K28 side chain: C20DA-gGlu-gGlu-gGlu-gGlu-gGlu-gGlu-eLys; C-terminal NH2
B11: Compound 123 (peptide)
peptide: YXEGTFTSDYSIXLEKQAQXAFVEWLIKGGQSSGASLRHYYNWLTRQRY
modifications: Aib at 2, 13, 20; K28 side chain: C20DA-gGlu-gGlu-gGlu-gGlu-gGlu-gGlu-eLys; C-terminal NH2
B12: Compound 122 (peptide)
peptide: YXEGTFTSDYSIXLEKQAQXAFVEWLIKGGPSEPESLRHYYNWLTRQRY
modifications: Aib at 2, 13, 20; K28 side chain: C20DA-gGlu-gGlu-gGlu-gGlu-gGlu-gGlu-eLys; C-terminal NH2
B13: Compound 121 (peptide)
peptide: YXEGTFTSDYSIXLESQAQXAFVEWLIKGGPSSGASLRHYYNWLTRQRY
modifications: Aib at 2, 13, 20; K28 side chain: C20DA-gGlu-gGlu-gGlu-gGlu-gGlu-gGlu-eLys; C-terminal NH2
B14: Compound 130 (peptide)
peptide: YXEGTFTSDYSIXLEKQAQXAFIEWLIKGGPSSGASLRHYYNWLTRQRY
modifications: Aib at 2, 13, 20; K28 side chain: C20DA-gGlu-gGlu-gGlu-Glu-gGlu-gGlu-eLys; C-terminal NH2
B15: Compound 124 (peptide)
peptide: YXEGTFTSDYSIXLEQQAQXAFVEWLIKGGPSSGASLRHYYNWLTRQRY
modifications: Aib at 2, 13, 20; K28 side chain: C20DA-gGlu-gGlu-gGlu-gGlu-Glu-gGlu-eLys; C-terminal NH2
B16: Compound 114 (peptide)
peptide: YXEGTFTSDYSIXLEKQAQXAFVQWLIKGGPSEGVSLRHYYNWLTRQRY
modifications: Aib at 2, 13, 20; K28 side chain: C20DA-gGlu-gGlu-gGlu-gGlu-gGlu-gGlu-eLys; C-terminal NH2
B17: Compound 112 (peptide)
peptide: YXEGTFTSDYSIXLEKQAQXAFVQWLIKGGPSSGASLRHYYNWLTRQRY
modifications: Aib at 2, 13, 20; K28 side chain: C20DA-gGlu-gGlu-gGlu-gGlu-gGlu-OEG-OEG; C-terminal NH2
B18: Compound 120 (peptide)
peptide: YXEGTFTSDYSIXLEKQAQXAFVEWLIKGGPSSPASLRHYYNWLTRQRY
modifications: Aib at 2, 13, 20; K28 side chain: C20DA-gGlu-gGlu-gGlu-gGlu-gGlu-OEG-OEG; C-terminal NH2

Assays:
Experiment in all cases: cell-based or functional assay
human GIP receptor = target: T1, human GIP receptor (human, UniProt P48546 22-466)
T1 sequence (looked up): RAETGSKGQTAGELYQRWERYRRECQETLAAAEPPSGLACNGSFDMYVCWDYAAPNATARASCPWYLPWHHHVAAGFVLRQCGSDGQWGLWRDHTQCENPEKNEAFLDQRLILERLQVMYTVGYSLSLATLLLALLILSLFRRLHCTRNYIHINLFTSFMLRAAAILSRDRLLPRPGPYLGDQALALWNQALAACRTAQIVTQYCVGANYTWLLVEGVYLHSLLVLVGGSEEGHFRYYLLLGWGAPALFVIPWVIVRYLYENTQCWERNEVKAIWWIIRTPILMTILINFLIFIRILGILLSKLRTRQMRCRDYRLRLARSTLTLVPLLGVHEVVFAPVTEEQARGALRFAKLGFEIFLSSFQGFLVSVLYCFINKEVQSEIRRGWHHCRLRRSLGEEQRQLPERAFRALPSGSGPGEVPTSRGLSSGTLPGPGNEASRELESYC

[1] = target: T2, human neuropeptide Y2 receptor (human, UniProt P49146 1-381)
T2 sequence (looked up): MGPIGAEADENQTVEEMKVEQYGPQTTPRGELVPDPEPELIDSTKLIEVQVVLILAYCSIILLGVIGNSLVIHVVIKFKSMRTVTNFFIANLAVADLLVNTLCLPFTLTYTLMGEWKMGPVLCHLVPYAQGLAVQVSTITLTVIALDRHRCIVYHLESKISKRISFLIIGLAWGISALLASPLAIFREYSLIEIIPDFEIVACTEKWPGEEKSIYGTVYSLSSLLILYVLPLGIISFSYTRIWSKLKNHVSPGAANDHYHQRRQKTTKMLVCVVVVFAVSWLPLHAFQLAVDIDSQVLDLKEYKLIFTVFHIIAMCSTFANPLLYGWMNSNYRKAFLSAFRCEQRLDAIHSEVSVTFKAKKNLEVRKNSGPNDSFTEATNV

human GLP-1 receptor = human GLP-1 receptor (human, UniProt P43220 24-463)

Binder | EC50 CreLuc hGIPR 0.5% hP (human GIP receptor) | EC50 CreLuc hGIPR 100% hP (human GIP receptor) | EC50 CreLuc hNPY2R 0.5% hP [1] | EC50 CreLuc hNPY2R 100% hP [1] | EC50 CreLuc hGLP1R 0.5% hP (human GLP-1 receptor) | EC50 CreLuc hGLP1R 100% hP (human GLP-1 receptor)
Y[Aib]EGTFTSDYSI[Aib]LEEQAQ[Aib]AFVEWLIK([εLys-AEEA-γGlu-γGlu-γGlu-γGlu-γGlu-C20 diacid])GGPSSGASLRHYYNWLTRQRY-NH2 [Compound 110] | 0.15 nM | 1.14 nM | 17.5 nM | 42.5 nM | 0.15 nM | 1.53 nM
B1 | 0.55 nM | 1.96 nM | 13.4 nM | 36.8 nM | 0.12 nM | 5.32 nM
B2 | 0.11 nM | 0.9 nM | 24.8 nM | 51.9 nM | 0.4 nM | 3.7 nM
B3 | 0.05 nM | 0.84 nM | 13.2 nM | 66.3 nM | 0.04 nM | 1.6 nM
B4 | 0.51 nM | 1.89 nM | 7.8 nM | 30.6 nM | 0.12 nM | 3.45 nM
B5 | 0.06 nM | 0.5 nM | 30.9 nM | 87.6 nM | 0.04 nM | 0.85 nM
B6 | 0.43 nM | 3.01 nM | 13.5 nM | 85.7 nM | 0.14 nM | 2.48 nM
B7 | 0.63 nM | 4.31 nM | 23.1 nM | 80.1 nM | 0.26 nM | 4.46 nM
B8 | 0.28 nM | 1.72 nM | 30.9 nM | 99.3 nM | 0.23 nM | 2.85 nM
B9 | 0.14 nM | 1.18 nM | 6.81 nM | 24.6 nM | 0.13 nM | 1.8 nM
B10 | 0.06 nM | 0.55 nM | 6.2 nM | 26.2 nM | 0.05 nM | 0.84 nM
B11 | 0.42 nM | 4.11 nM | 6.12 nM | 31.3 nM | 0.24 nM | 7.88 nM
B12 | 0.08 nM | 1.53 nM | 26.3 nM | 78.9 nM | 0.22 nM | 4.97 nM
B13 | 0.65 nM | 7.29 nM | 23.8 nM | 88.9 nM | 0.18 nM | 7.09 nM
B14 | 0.11 nM | 0.98 nM | 18 nM | 54.8 nM | 0.13 nM | 1.18 nM
B15 | 0.26 nM | 0.89 nM | 16.2 nM | 39.9 nM | 0.11 nM | 1.95 nM
B16 | 0.27 nM | 2.34 nM | 7.73 nM | 44.8 nM | 0.15 nM | 5.56 nM
B17 | 0.19 nM | 0.83 nM | 8.05 nM | 27.6 nM | 0.06 nM | 1.7 nM
B18 | 0.34 nM | 1.44 nM | 10.7 nM | 39.2 nM | 0.11 nM | 4.65 nM
Y[Aib]EGTFTSDYSI[Aib]LEKQAQ[Aib]AFVQWLIKGGPEEGASLRHYYNWLTRQRY-NH2 (not fully specified (residue 28)) [Compound 108] | 0.3 nM | 2.14 nM | 14.8 nM | 57.4 nM | 0.4 nM | 6.16 nM
Y[Aib]EGTFTSDYSI[Aib]LEKQAQ[Aib]AFVEWLLKGGPSSGASLRHYYNWLTRQRY-NH2 (not fully specified (residue 28)) [Compound 109] | 0.09 nM | 0.64 nM | 10.8 nM | 52.2 nM | 0.28 nM | 3.32 nM
Y[Aib]EGTFTSDYSI[Aib]LEKQAQ[Aib]AFVEWLIKGGPSSYASLRHYYNWLTRQRY-NH2 (not fully specified (residue 28)) [Compound 126] | 0.1 nM | 1.27 nM | 15.1 nM | 41.8 nM | 0.18 nM | 3.36 nM
Y[Aib]EGTFTSDLSI[Aib]LEKQAQ[Aib]AFVQWLIKGGPSEGASLRHYYNWLTRQRY-NH2 (not fully specified (residue 28)) [Compound 113] | 0.56 nM | 3.84 nM | 19.5 nM | 49.9 nM | 0.19 nM | 3.72 nM
